Assay results reported in article PMC5510004, “Recruitment and positioning determine the specific role of the XPF‐ERCC1 endonuclease in interstrand crosslink repair”.

Target: T1, XPF G314E;ERCC1 wild type (hsERCC1) (Xenopus laevis;Homo sapiens?, UniProt A0A8J0PXV9;P07992 1-897;1-297, G314E|)
T1 sequence 1: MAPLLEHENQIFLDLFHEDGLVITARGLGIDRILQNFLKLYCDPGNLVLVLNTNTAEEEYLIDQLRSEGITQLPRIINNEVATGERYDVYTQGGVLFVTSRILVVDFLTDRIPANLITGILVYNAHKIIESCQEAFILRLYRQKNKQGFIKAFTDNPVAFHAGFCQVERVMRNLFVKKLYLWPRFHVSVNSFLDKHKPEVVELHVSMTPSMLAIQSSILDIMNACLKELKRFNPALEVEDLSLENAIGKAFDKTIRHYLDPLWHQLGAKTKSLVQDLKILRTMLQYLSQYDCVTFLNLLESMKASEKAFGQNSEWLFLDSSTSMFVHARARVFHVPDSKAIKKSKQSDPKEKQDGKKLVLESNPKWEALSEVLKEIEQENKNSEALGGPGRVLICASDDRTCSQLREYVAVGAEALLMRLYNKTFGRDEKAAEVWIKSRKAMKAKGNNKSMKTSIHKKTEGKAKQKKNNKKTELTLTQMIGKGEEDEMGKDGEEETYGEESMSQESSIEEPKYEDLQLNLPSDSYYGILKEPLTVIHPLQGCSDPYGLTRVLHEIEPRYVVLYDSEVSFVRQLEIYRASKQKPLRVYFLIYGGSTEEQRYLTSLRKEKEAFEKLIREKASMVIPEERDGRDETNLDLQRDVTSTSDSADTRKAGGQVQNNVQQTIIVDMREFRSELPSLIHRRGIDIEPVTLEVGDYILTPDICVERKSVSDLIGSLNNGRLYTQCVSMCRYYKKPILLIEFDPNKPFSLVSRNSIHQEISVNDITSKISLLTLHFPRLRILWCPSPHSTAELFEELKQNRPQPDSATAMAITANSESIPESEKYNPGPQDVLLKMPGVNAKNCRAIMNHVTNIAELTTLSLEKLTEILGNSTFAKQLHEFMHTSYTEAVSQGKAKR
T1 sequence 2: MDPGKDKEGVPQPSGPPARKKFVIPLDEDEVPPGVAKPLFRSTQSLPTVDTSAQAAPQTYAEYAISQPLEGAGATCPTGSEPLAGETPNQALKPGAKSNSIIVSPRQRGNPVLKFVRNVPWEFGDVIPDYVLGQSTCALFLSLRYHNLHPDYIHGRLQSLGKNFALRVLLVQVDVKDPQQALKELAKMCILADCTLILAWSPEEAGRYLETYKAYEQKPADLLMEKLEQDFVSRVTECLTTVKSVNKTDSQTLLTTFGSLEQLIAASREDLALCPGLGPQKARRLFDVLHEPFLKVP
Test: fluorescence anisotropy; 2 mM Ca2+; comparable to wild type; 25 mM Hepes pH 8.0, 15% glycerol, 0.1 mg/ml BSA, 2 mM CaCl2, 10 nM DNA, 1 h at room temperature
Conditions: protein: recombinant;recombinant; tags: FLAG;His; copies: 1;1; label: 5'-FAM on F1; three strands 1:1:1

B1: 3' flap DNA substrate (F1+F2+F3) (dsDNA)
DNA 1: CGCGATGCGGATCCAA
DNA 2: CCTAGACTTAAGAGGCCAGACTTGGATCCGCATCGC
DNA 3: GGCCTCTTAAGTCTAGG
Question: Does B1 bind?
Answer: binds
